Measured values from publication PMC3485628.
Where two headings read alike, the source gives them in different places.

Experiments:
[1] = molecular target: a commercial source of HSPG; test: ELISA; capture antibody CSI 001-71 (anti-Pln.D1) coated, then rhPln.247 (1 ug/ml) or HSPG, then dilutions of rhBMP-2; retained BMP detected with anti-BMP antibodies; background subtracted; apparent Kd
[2] = molecular target: recombinant human perlecan domain 1 proteoglycan rhPln.247 (human) (UniProt P98160); test: as above
recombinant human perlecan domain 1 proteoglycan rhPln.247 (human), sequence (P98160 22-247): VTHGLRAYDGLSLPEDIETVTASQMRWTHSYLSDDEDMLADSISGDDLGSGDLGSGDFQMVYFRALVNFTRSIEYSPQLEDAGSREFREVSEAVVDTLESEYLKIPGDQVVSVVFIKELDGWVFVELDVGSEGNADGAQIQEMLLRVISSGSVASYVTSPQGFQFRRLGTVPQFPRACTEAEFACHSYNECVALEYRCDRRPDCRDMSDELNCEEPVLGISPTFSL

[3] = molecular target: a commercial source of HSPG; test: as above; remark: listed apart in the source
[4] = molecular target: recombinant human perlecan domain 1 proteoglycan rhPln.247 (human) (UniProt P98160); test: ELISA; rhPln.247 coated directly on polystyrene microtiter wells overnight at 4°C in PBS/N3 at about 1-2 ug/ml; rhBMP-2 or rhBMP-7 serially diluted; retained BMP detected with biotinylated anti-BMP antibodies; background without rhPln.247 subtracted; apparent Kd
[5] = molecular target: recombinant human perlecan domain 1 proteoglycan rhPln.247 (human) (UniProt P98160); test: as above; remark: listed apart in the source

recombinant human bone morphogenetic protein-2, sequence (P12643 283-396): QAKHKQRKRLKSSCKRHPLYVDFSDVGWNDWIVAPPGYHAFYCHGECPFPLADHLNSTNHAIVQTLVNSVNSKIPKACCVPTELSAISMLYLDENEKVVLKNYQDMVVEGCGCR

Kd [1]: 150 nM | Kd [2]: 0.6 nM | Kd [3]: 0.15 nM | Kd [4]: 0.573 nM | Kd [5]: 0.4 nM
Substance: recombinant human bone morphogenetic protein-2 (from UniProt P12643 283-396) (ligand)
